Assay [1] concerns the target T1, BCMA protein on MM1R cells (UniProt Q02223 1-184, limits assumed).
T1 construct: whole, on cells; also called BCMA proteins on MM1R cell membrane surfaces
T1 sequence (looked up): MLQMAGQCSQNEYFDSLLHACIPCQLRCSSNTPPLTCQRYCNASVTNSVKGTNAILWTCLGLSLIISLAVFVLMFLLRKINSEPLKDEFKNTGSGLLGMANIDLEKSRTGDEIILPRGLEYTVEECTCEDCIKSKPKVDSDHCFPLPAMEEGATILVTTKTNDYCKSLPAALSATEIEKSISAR
Nature of the assay: flow cytometry on MM1R cells. As to the method:
HEK 293 cells or MM1R cells (0.5×10⁶) were aliquoted into separate FACS tubes and were labelled as unstained, test sample or positive control. Hybridoma sup (20 μL) or purified CA10 or positive control (1 μg/mL, 5 μL) were added to the cells and incubated on ice for 30 minutes. […] The supernatant was poured off and the cells were gently vortexed to mix. 50 μL of 1:500 dilution of FITC conjugated goat anti-human (or mouse) H+L specific secondary antibody was added to the cells, and the cells were incubated on ice or at 4° C. for 30 minutes in the dark. […] The supernatant was discarded, and the cells were resuspended in 150-200 μL of FACS buffer. The cells were acquired on a BD FACS Canto and data analyzed using Flojo V10. Software.

The next assay has as its target T2, Cyno BCMA-Avi-His (cynomolgus, UniProt A0A2K5UD97 2-53).
T2 construct: SPR analyte; also called cynomolgus BCMA Avi-His protein
Nature of the assay: SPR (Biacore T100), antibody captured on Protein A chip, antigen as analyte. On the procedure:
(§1) 1×HBS-EP+ was prepared in MilliQ water, filtered, and degassed. A BIACORE™ T100 was primed with 1×HBS-EP+. The immobilized chip […] BIACORE™ control software was used.
(§2) The antibodies were diluted to 20 μg/mL in HBS-EP+. Seven 1:1 serial dilutions of the antigens were prepared (80 nM final concentration), and 1×HBS-EP+ was used as a 0 nm control. 1×HBS-EP+ was used for start-up injections and HCl (12 mM) was used for regeneration. The samples were run, and the data were analyzed using the BIACORE™ T100 software.
Background: Surface plasmon resonance follows binding to a sensor surface in real time, without labels.

Another assay concerns the target T3, Human BCMA-Avi-His (human, UniProt Q02223 2-54).
T3 construct: SPR analyte; also called human BCMA Avi-His protein
T3 sequence (looked up): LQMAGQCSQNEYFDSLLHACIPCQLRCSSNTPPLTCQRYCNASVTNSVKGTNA
Described as above. As to the method:
as §1, §2

The target of assay [2] is T4, cynomolgus BCMA protein (ELISA antigen) (cynomolgus, UniProt A0A2K5UD97 1-53).
T4 construct: also called Cyno BCMA; BCMA antigen
As to the kind of experiment: ELISA on coated BCMA antigen. Background: ELISA stands for enzyme-linked immunosorbent assay.
Description: A solution of BCMA antigen (2 μg/mL or 1 mg/mL biotinylated BCMA antigen when Streptavidin coated plate is used) was prepared in phosphate buffered saline (PBS). The antigen solution was added to 96-well plates (50 μL per well) and was incubated at 4° C. overnight. The plates were blocked with 250 μL per well of PBSA (PBS containing 1% BSA) for 2 hr at 37° C., then washed with 200 μL per well of phosphate buffered saline (PBS) three times. Hybridoma sup (50 μL) or 1 mg/mL of purified test or control (positive and negative) antibody (50 μL) were added per well in the 96-well plate and were incubated for 1 hour at room temperature. The plates were washed with 200 μl per well of PBS, three times, then horse radish peroxidase (HRP) conjugated secondary antibody diluted at 1:5,000 in PBSA (50 μl per well) was added and incubated for 1 hour at room temperature. Then, the plates were washed with 200 μl per well of PBS, three times. The tetramethylbenzidine dihydrochloride (TMB) substrate was prepared by mixing with both Solution A and Solution B (1:1) in a 15 mL conical tube, then 50 μL of the substrate was added to the wells. The color was allowed to develop for 1-5 minutes, then 50 μL of the stop solution was added to each well. The absorbance was read using a SpectraMax (Molecular Devices) at 450 nm.

Another assay concerns the target T5, Cyno BCMA DTA-His (cynomolgus).
T5 construct: SPR analyte, Mw 28,203 Da; also called Cyno DTA His; cynomolgus BCMA DTA-His protein
Nature of the assay: SPR (Biacore T100), antibody captured on Protein A chip, antigen as analyte. On the procedure:
as §1, §2

T2 sequence (A0A2K5UD97 entry or part of it): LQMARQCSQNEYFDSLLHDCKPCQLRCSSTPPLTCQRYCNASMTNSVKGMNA
T5 sequence (P00588 32-225, tags or fused parts left off): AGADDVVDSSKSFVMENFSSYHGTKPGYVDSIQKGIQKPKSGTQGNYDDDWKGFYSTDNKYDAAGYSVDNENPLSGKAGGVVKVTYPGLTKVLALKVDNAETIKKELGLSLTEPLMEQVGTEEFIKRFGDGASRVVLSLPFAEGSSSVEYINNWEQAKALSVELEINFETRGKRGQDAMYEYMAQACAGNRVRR
T4 sequence (A0A2K5UD97 entry or part of it): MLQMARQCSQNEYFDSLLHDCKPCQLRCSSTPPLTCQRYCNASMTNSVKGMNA

B1: CA10_parental (antibody, V domains shown)
VH: QVQLVESGGGVVQPGRSLRLSCAASGFTFSNFGMHWVRQAPGRGLEWVAVIWSDETNRYYADSVKGRFTVSRDNVKSTVYLQMNSLISEDTAVYYCARDQQYCSSDSCFTWFDPWGQGTLVTVSS
VL: QVVVTQESALTTSPGETVTLTCRSSTGTVTPSNYANWVQEKPDHFFTGLIGDNNSRPPGVPARFSASLIGDKAALTITGAQTEDEAMYFCALWFGNQWVFGGGTKVTVL
notes: tested as a mAb purified on mAbSelect SuRe; also called CA10_V2_parental; CA10 WT
For B1, the binding result (in assay [1]; with Cyno BCMA-Avi-His; with Human BCMA-Avi-His) was “binds” throughout.

B2: CA10 Variant 5 (CA10_PE_V5) (antibody, V domains shown)
VH: QVQLVESGGGVVQPGRSLRLSCAASGFTFSNFGMHWVRQAPGRGLEWVAVIWSDETNRYYADSVKGRFTVSRDNVKSTVYLQMNSLISEDTAVYYCARDQQYCSSDSCFTWFDPWGQGTLVTVSS
VL: QTVVTQEPSLTVSPGGTVTLTCASSTGAVTSGYYANWVQQKPGQAPRALIGDNNIKPSWTPARFSGSLLGGKAALTLSGVQPEDEAEYYCALYYGGQWVFGGGTKLTVL
B2: the results for the binding result (in assay [2]; in the assay with Cyno BCMA-Avi-His; with Cyno BCMA DTA-His) were “no binding”, “no binding (tested: antigen up to 80 nM)” and “no binding (tested: antigen up to 80 nM)”, respectively.

B3: CA10 Variant 2 (antibody, V domains shown)
VH: QVQLVESGGGVVQPGRSLRLSCAASGFTFSNFGMHWVRQAPGRGLEWVAVIWSDETNRYYADSVKGRFTVSRDNVKSTVYLQMNSLISEDTAVYYCARDQQYCSSDSCFTWFDPWGQGTLVTVSS
VL: QTVVTQEPSLTVSPGGTVTLTCASSTGTVTPSNYANWVQQKPGQAPRGLIGDNNSRPPGTPARFSASLLGGKAALTLSGVQPEDEAEYYCALWFGNQWVFGGGTKLTVL
Regarding B3, the binding result (in assay [1]; with Cyno BCMA-Avi-His; with Human BCMA-Avi-His) was “binds” in each case.

B4: CA10 Variant 6 (antibody, V domains shown)
VH: QVQLVESGGGVVQPGRSLRLSCAASGFTFSNFGMHWVRQAPGRGLEWVAVIWSDETNRYYADSVKGRFTVSRDNVKSTVYLQMNSLISEDTAVYYCARDQQYCSSDSCFTWFDPWGQGTLVTVSS
VL: QTVVTQEPSLTVSPGGTVTLTCASSTGTVTPSNYANWVQQKPGQFPRGLIGDNNSRPPGTPARFSASLLGGKAALTLSGVQPEDEAEYYCALWFGNQWVFGGGTKLTVL
For the molecule B4, the binding result (in assay [1]; with Cyno BCMA-Avi-His; with Human BCMA-Avi-His) was “binds” in each case.

B5: CA10 Variant 4 (antibody, V domains shown)
VH: QVQLVESGGGVVQPGRSLRLSCAASGFTFSNFGMHWVRQAPGRGLEWVAVIWSDETNRYYADSVKGRFTVSRDNVKSTVYLQMNSLISEDTAVYYCARDQQYCSSDSCFTWFDPWGQGTLVTVSS
VL: QTVVTQEPSLTVSPGGTVTLTCASSTGAVTPGYYANWVQQKPGQAPRGLIGDNNNKPPWTPARFSGSLLGGKAALTLSGVQPEDEAEYYCALYYGGQWVFGGGTKLTVL
Take B5: the binding result in assay [1] is recorded as “binds”.

B6: CA10 Variant 3 (antibody, V domains shown)
VH: QVQLVESGGGVVQPGRSLRLSCAASGFTFSNFGMHWVRQAPGRGLEWVAVIWSDETNRYYADSVKGRFTVSRDNVKSTVYLQMNSLISEDTAVYYCARDQQYCSSDSCFTWFDPWGQGTLVTVSS
VL: QTVVTQEPSLTVSPGGTVTLTCASSTGAVTPSNYANWVQQKPGQAPRGLIGDNNIKPPWTPARFSGSLLGGKAALTLSGVQPEDEAEYYCALWYGGQWVFGGGTKLTVL
Consider B6, for which the binding result (in assay [1]; with Cyno BCMA-Avi-His; with Human BCMA-Avi-His) was “binds” each time.

B7: CA10 Variant 1 (antibody, V domains shown)
VH: QVQLVESGGGVVQPGRSLRLSCAASGFTFSNFGMHWVRQAPGRGLEWVAVIWSDETNRYYADSVKGRFTVSRDNVKSTVYLQMNSLISEDTAVYYCARDQQYCSSDSCFTWFDPWGQGTLVTVSS
VL: QTVVTQEPSLTVSPGGTVTLTCRSSTGTVTPSNYANWVQQKPDHFFTGLIGDNNSRPPGVPARFSASLIGDKAALTLSGVQPEDEAEYYCALWFGNQWVFGGGTKLTVL
Turning to B7, the binding result (in assay [1]; in the assay with Cyno BCMA-Avi-His; with Human BCMA-Avi-His) was “binds” each time.

Values taken from patent publication US20240117062A1 (Sanofi, published 2024).
